This series concerns the molecule itself. Briefly: crystal structure; Rrp4-exosome isoform (Rrp4, Rrp41, Rrp42 co-expressed and co-purified); 2.9 Å, space group C2; 30% PEG4000, 100 mM Tris-HCl pH 8.6, 200 mM Mg(Ac)2; refined without three-fold NCS.

This is an account of results in publication PMC2806925, “Crystal Structure of the S. solfataricus Archaeal Exosome Reveals Conformational Flexibility in the RNA-Binding Ring” (PLoS ONE, 2010).

B1: Sulfolobus solfataricus exosome subunit Rrp4 as in the crystallised Rrp4-exosome isoform (natural protein)
chain: MNMSQSQKIVLQPRSIVVPGELLAEGEFQIPWSPYILKINSKYYSTVVGLFDVKDTQFEVIPLEGSFYYPKINDIVIGLVEDVEIYGWVVDIKAPYKAYLPASNLLGRSINVGEDLRRYLDVGDYVIARIENFDRSIDPVLSVKGKDLGRVSNGIVIDIMPVKVPRVIGKNKSMYETLTSKSGCSIFVANNGRIWATCPSRFSEEILIEAIRKIENESHIKGLTDRIKQFIEEKLGERNASSGETKTNS
notes: domains as printed: N-ter aa 1-50, S1 aa 56-126, KH aa 135-250; The purification of the Rrp4-exosome isoform is not described on its own; In the four-subunit preparation the His6-tag was removed with TEV protease, so the tag was probably cleaved here too; also called Chains C, F and I
For orientation: stoichiometry N means a count of units in the complex or per binding partner. Consider B1, for which the “stoichiometry N” value is 3.
